Reference: publication doi:10.1101/2020.11.03.367284

Assays:
[1] = biological target: GSU0105, triheme c-type cytochrome from Geobacter sulfurreducens, with C-terminal Factor Xa-cleavable His-tag (Geobacter sulfurreducens); experiment: SAXS
[2] = biological target: GSU0105, triheme c-type cytochrome from Geobacter sulfurreducens, with C-terminal Factor Xa-cleavable His-tag (Geobacter sulfurreducens); experiment: pull-down

stoichiometry N [1] | Kd [2] [µM] | Substance
4 | – | GSU0105, triheme c-type cytochrome from Geobacter sulfurreducens, with C-terminal Factor Xa-cleavable His-tag (natural protein)
– | < 10 | PpcD, triheme cytochrome c7 from Geobacter sulfurreducens (natural protein)
